Measurements reported in patent US20230265151A1, “GIP/GLP1 CO-AGONIST COMPOUNDS” (priority 2020, published 2023).
*1 amine or outer side, *2 acyl side, *3 side chain or, on linkers, in order; H or OH if unused. Where no end group is shown, it is not given here. Side-chain parts run from the residue outwards. [ ]: non-standard residue; d: D form. The star is where a group is joined. Decanoyl(10-(4-HOOC-PhO)) = O=C(O)c1ccc(OCCCCCCCCCC(=O)*)cc1; αMePhe(2-F) = C[C@](N)(Cc1ccccc1F)C(=O)O; γGlu = O=C(O)[C@H](CCC(=O)[*:2])N[*:1]; C14 diacid = O=C(O)CCCCCCCCCCCCC(=O)*; αMeY = C[C@](N)(Cc1ccc(O)cc1)C(=O)O; αMeL = CC(C)C[C@](C)(N)C(=O)O; Orn = NCCC[C@H](N)C(=O)O; AEEA = NCCOCCOCC(=O)O; Aib = CC(C)(N)C(=O)O

T1: human GIP receptor (human, UniProt P48546 22-466)
T1 sequence (looked up): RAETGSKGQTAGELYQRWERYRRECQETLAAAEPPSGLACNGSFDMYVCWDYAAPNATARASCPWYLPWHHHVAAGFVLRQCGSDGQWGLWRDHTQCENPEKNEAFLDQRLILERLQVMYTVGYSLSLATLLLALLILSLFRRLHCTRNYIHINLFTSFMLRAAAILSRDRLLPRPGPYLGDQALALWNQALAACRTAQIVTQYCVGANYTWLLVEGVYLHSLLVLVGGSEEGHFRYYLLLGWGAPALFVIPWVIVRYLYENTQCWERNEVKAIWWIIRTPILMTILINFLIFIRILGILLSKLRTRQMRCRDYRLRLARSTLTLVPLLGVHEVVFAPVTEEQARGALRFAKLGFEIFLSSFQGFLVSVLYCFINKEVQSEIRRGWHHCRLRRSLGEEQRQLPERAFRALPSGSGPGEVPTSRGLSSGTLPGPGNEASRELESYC

T2: human GIP receptor (human, UniProt P48546 22-466)
T2 sequence (looked up): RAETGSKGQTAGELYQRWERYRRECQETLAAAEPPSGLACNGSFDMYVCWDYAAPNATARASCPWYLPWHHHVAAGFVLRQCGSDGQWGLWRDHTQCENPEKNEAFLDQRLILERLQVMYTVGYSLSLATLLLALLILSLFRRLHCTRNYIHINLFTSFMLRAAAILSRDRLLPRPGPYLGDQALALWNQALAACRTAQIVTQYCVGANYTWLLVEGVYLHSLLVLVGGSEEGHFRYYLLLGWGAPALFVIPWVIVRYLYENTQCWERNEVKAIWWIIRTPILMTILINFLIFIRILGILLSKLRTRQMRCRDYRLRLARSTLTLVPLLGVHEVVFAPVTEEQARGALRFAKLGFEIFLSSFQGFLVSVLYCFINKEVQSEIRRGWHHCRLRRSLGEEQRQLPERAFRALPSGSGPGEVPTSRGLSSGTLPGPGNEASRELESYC

T3: human GIP receptor (human) (UniProt P48546)
T3 sequence (looked up): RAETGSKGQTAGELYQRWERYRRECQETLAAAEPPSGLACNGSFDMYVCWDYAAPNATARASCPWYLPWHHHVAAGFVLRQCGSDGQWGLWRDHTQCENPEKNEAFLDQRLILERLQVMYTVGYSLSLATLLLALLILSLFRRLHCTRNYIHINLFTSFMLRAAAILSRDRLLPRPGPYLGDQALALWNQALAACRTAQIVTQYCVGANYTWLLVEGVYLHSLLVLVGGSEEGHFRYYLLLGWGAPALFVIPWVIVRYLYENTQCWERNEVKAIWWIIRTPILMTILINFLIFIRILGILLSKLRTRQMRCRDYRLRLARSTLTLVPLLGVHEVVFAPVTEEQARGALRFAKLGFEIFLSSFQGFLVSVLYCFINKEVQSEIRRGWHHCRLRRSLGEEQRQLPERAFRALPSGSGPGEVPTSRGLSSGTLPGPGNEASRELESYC


How the values were obtained:
Assay in all cases: cell-based or functional assay
human glucagon receptor [1] = target: human glucagon receptor (human, UniProt P47871 26-477)
Target sequence in this assay (P47871 26-477): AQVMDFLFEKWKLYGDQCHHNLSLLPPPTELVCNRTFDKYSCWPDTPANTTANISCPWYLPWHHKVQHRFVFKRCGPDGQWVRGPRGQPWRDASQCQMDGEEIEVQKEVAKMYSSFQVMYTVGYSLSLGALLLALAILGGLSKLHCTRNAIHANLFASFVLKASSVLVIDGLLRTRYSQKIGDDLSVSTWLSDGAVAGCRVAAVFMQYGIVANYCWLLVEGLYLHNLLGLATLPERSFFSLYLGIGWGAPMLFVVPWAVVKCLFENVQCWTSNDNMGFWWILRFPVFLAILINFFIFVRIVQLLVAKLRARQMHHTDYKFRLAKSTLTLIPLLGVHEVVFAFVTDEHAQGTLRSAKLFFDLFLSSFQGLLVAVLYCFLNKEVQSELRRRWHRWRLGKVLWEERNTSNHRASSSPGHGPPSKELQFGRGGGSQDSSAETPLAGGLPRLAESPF

human GLP-1 receptor [2] = target: human GLP-1 receptor (human, UniProt P43220 24-463)
human GIP receptor [3] = target: T1, human GIP receptor
human GLP-1 receptor [4] = target: human GLP-1 receptor (human, UniProt P43220 24-463); remark: listed apart in the source
human GIP receptor [5] = target: T2, human GIP receptor; remark: listed apart in the source
human glucagon receptor [6] = target: human glucagon receptor (human, UniProt P47871 26-477); remark: listed apart in the source
[7] = target: T3, human GIP receptor (human)
hGLP-1R = hGLP-1R (Homo sapiens, UniProt P43220)
[8] = target: human glucagon receptor (human) (UniProt P47871)

| Binder | cAMP EC50 (1.0% HSA) (human glucagon receptor [1]) [nM] | cAMP EC50 (1.0% HSA) (human GLP-1 receptor [2]) [nM] | cAMP Emax (1.0% HSA) (human GLP-1 receptor [2]) [%] | cAMP EC50 (1.0% HSA) (human GIP receptor [3]) [nM] | cAMP EC50 (1.0% HSA) (human GLP-1 receptor [4]) [nM] | cAMP Emax (1.0% HSA) (human GLP-1 receptor [4]) [%] | cAMP EC50 (1.0% HSA) (human GIP receptor [5]) [nM] | cAMP Emax (1.0% HSA) (human GIP receptor [5]) [%] | cAMP EC50 (1.0% HSA) (human glucagon receptor [6]) [nM] | cAMP EC50 [7] [nM] | cAMP Emax [7] [%] | cAMP EC50 (hGLP-1R) [nM] | cAMP Emax (hGLP-1R) [%] | cAMP EC50 [8] [nM] |
| --- | --- | --- | --- | --- | --- | --- | --- | --- | --- | --- | --- | --- | --- | --- |
| YXEGTXTSDYXIXLDXIAQXXFIKXLIKGGPSSGAPPPS (Y-Aib-EGT-αMeF(2F)-TSDY-Aib-I-αMeL-LD-Orn-IAQ-Aib-Orn-FIK((2-[2-(2-Amino-ethoxy)-ethoxy]-acetyl)2-(γ-Glu)-(10-(4-carboxyphenoxy)decanoyl))-αMeY-LIK((2-[2-(2-Amino-ethoxy)-ethoxy]-acetyl)2-(γ-Glu)-(10-(4-carboxyphenoxy)decanoyl))GGPSSGAPPPS-NH2) [Example 355] | > 9950 | 11.3 | 109 | 1.81 | – | – | – | – | – | – | – | – | – | – |
| Y[Aib]EGT[αMePhe(2-F)]TSDV[Aib]I[αMeL]LD[Orn]K([AEEA-AEEA-γGlu-Decanoyl(10-(4-HOOC-PhO))])AQ[Aib]EFI[dE][αMeY]LIK([AEEA-AEEA-γGlu-Decanoyl(10-(4-HOOC-PhO))])GGPSSGAPPPS-NH2 [Example 326] | – | – | – | – | 26.1 | 96.1 | 4.62 | 88.7 | > 9950 | 0.0338 | 102 | 0.186 | 94.4 | > 9950 |
| Y[Aib]EGT[αMePhe(2-F)]TSDV[Aib]I[αMeL]LD[Orn]K([AEEA-AEEA-γGlu-C14 diacid])AQ[Aib][Orn]FI[dE][αMeY]LIK([AEEA-AEEA-γGlu-C14 diacid])GGPSSGAPPPS-NH2 [Example 350] | – | – | – | – | 6.4 | 91.4 | 5.82 | – | > 9950 | 0.0288 | 101 | 0.202 | 95.9 | > 9950 |
| YXEGTXTSDXXIXLDXIAQXKFIXXLIEGGPSSGAPPPSK (Y-Aib-EGT-αMeF(2F)-TSD-4Pal-Aib-I-αMeL-LD-Orn-IAQ-Aib-K((2-[2-(2-Amino-ethoxy)-ethoxy]-acetyl)-(γ-Glu)-CO-(CH2)12-CO2H)FI-(D-Glu)-αMeY-LIEGGPSSGAPPPSK((2-[2-(2-Amino-ethoxy)-ethoxy]-acetyl)-(γ-Glu)-CO-(CH2)12-CO2H)-NH2) [Example 341] | – | – | – | – | 95.8 | 113 | 5.74 | 83.6 | > 9950 | 0.0127 | 91.4 | 0.329 | 99.9 | > 9950 |
| Y[Aib]EGT[αMePhe(2-F)]TSDV[Aib]I[αMeL]LD[Orn]IAQ[Aib]K([AEEA-AEEA-γGlu-Decanoyl(10-(4-HOOC-PhO))])FI[dE][αMeY]LIK([AEEA-AEEA-γGlu-Decanoyl(10-(4-HOOC-PhO))])GGPSSGAPPPS-NH2 [Example 330] | – | – | – | – | 85.2 | 85 | 6.26 | 103 | > 9950 | 0.0185 | 112 | 0.477 | 103 | > 9950 |
| Y[Aib]EGT[αMePhe(2-F)]TSDV[Aib]I[αMeL]LD[Orn]IAQ[Aib]K([AEEA-AEEA-γGlu-C14 diacid])FI[dE][αMeY]LIK([AEEA-AEEA-γGlu-C14 diacid])GGPSSGAPPPS-NH2 (N-terminus assumed; SMILES CC[C@H](C)[C@H](NC(=O)[C@H](CCCN)NC(=O)[C@H](CC(=O)O)NC(=O)[C@H](CC(C)C)NC(=O)[C@](C)(CC(C)C)NC(=O)[C@@H](NC(=O)C(C)(C)NC(=O)[C@@H](NC(=O)[C@H](CC(=O)O)NC(=O)[C@H](CO)NC(=O)[C@@H](NC(=O)[C@](C)(Cc1ccccc1F)NC(=O)[C@@H](NC(=O)CNC(=O)[C@H](CCC(=O)O)NC(=O)C(C)(C)NC(=O)[C@@H](N)Cc1ccc(O)cc1)[C@@H](C)O)[C@@H](C)O)C(C)C)[C@@H](C)CC)C(=O)N[C@@H](C)C(=O)N[C@@H](CCC(N)=O)C(=O)NC(C)(C)C(=O)N[C@@H](CCCCNC(=O)COCCOCCNC(=O)COCCOCCNC(=O)CC[C@H](NC(=O)CCCCCCCCCCCCC(=O)O)C(=O)O)C(=O)N[C@@H](Cc1ccccc1)C(=O)N[C@H](C(=O)N[C@H](CCC(=O)O)C(=O)N[C@@](C)(Cc1ccc(O)cc1)C(=O)N[C@@H](CC(C)C)C(=O)N[C@H](C(=O)N[C@@H](CCCCNC(=O)COCCOCCNC(=O)COCCOCCNC(=O)CC[C@H](NC(=O)CCCCCCCCCCCCC(=O)O)C(=O)O)C(=O)NCC(=O)NCC(=O)N1CCC[C@H]1C(=O)N[C@@H](CO)C(=O)N[C@@H](CO)C(=O)NCC(=O)N[C@@H](C)C(=O)N1CCC[C@H]1C(=O)N1CCC[C@H]1C(=O)N1CCC[C@H]1C(=O)N[C@@H](CO)C(N)=O)[C@@H](C)CC)[C@@H](C)CC) [Example 329] | – | – | – | – | 74.7 | 88.3 | 5.44 | 100 | > 9950 | 0.015 | 109 | 0.353 | 104 | > 9950 |
| Y[Aib]EGT[αMePhe(2-F)]TSDV[Aib]I[αMeL]LD[Orn]K([AEEA-AEEA-γGlu-C14 diacid])AQ[Aib]EFI[dE][αMeY]LIK([AEEA-AEEA-γGlu-C14 diacid])GGPSSGAPPPS-NH2 (N-terminus assumed; SMILES CC[C@H](C)[C@H](NC(=O)[C@H](CC(C)C)NC(=O)[C@](C)(Cc1ccc(O)cc1)NC(=O)[C@@H](CCC(=O)O)NC(=O)[C@@H](NC(=O)[C@H](Cc1ccccc1)NC(=O)[C@H](CCC(=O)O)NC(=O)C(C)(C)NC(=O)[C@H](CCC(N)=O)NC(=O)[C@H](C)NC(=O)[C@H](CCCCNC(=O)COCCOCCNC(=O)COCCOCCNC(=O)CC[C@H](NC(=O)CCCCCCCCCCCCC(=O)O)C(=O)O)NC(=O)[C@H](CCCN)NC(=O)[C@H](CC(=O)O)NC(=O)[C@H](CC(C)C)NC(=O)[C@](C)(CC(C)C)NC(=O)[C@@H](NC(=O)C(C)(C)NC(=O)[C@@H](NC(=O)[C@H](CC(=O)O)NC(=O)[C@H](CO)NC(=O)[C@@H](NC(=O)[C@](C)(Cc1ccccc1F)NC(=O)[C@@H](NC(=O)CNC(=O)[C@H](CCC(=O)O)NC(=O)C(C)(C)NC(=O)[C@@H](N)Cc1ccc(O)cc1)[C@@H](C)O)[C@@H](C)O)C(C)C)[C@@H](C)CC)[C@@H](C)CC)C(=O)N[C@@H](CCCCNC(=O)COCCOCCNC(=O)COCCOCCNC(=O)CC[C@H](NC(=O)CCCCCCCCCCCCC(=O)O)C(=O)O)C(=O)NCC(=O)NCC(=O)N1CCC[C@H]1C(=O)N[C@@H](CO)C(=O)N[C@@H](CO)C(=O)NCC(=O)N[C@@H](C)C(=O)N1CCC[C@H]1C(=O)N1CCC[C@H]1C(=O)N1CCC[C@H]1C(=O)N[C@@H](CO)C(N)=O) [Example 325] | – | – | – | – | 23.5 | 98.4 | 3.96 | 94.7 | > 9950 | 0.0485 | 104 | 0.225 | 97.8 | > 9950 |
